Where a SMILES comes first, the peptide text is derived from it. The star is where a group is joined. DTPA = O=C(O)CN(CCN(CC(=O)O)CC(=O)O)CCN(CC(=O)O)CC(=O)*
What was measured:
[1] = target: T1, native 7E11-C5 antigen in LNCaP lysates (Homo sapiens, UniProt Q04609); test: Sandwich assay: capture of antigen from LNCaP cell lysate; type: binding; conditions: detection with biotinylated 7E11-C5, FIG. 6
T1 construct: endogenous in cells; host or cells: LNCaP cell lysate
Protocol: A sandwich assay using the LNCaP antigen was performed. The wells of a microtiter plate were coated with either monoclonal antibody 7E11-C5, the clone 14 7E11-C5 abtide, or, as a negative control, BSA. Coating and washing was as for-the assay described in Section 6.1.2.2. One hundred microliters of a lysate of LNCaP cells was added to the wells. The LNCaP lysate was prepared as described in PCT publication WO 94/18318, dated Aug. 18, 1994. Following capture of the lysate on the plate, 100 μL of a 5 μg/mL solution of biotinylated 7E11-CS monoclonal antibody was added to each well. Following incubation and washing as in Section 6.1.2.2, a 1:2000 dilution of Extravidin-Alkaline Phosphatase (4,250 units/mL) (Sigma, St. Louis, Mo.) in PBS was added to each well and incubated for 1 hour at room temperature. Following incubation, the wells were washed four times with 1% BSA in PBS and then twice in PBS. One hundred microliters of a 1 mg/mL solution of p-nitrophenyl phosphate in diethanol amine (DEA) buffer (both from Kirkegaard & Perry Laboratories, Gaithersburg, Md.) was then added and, after incubation at room temperature for 15-30 minutes, the absorbance of the solutions in the wells was read at 405 nm.
This was a surprising discovery and would not have been predicted by those skilled in the art. […]

[2] = system: biotinylated 7E11-9.5 mimetope peptide; test: Dot blot: spotted 7E11-C5 abtides probed with biotinylated mimetope peptide; type: binding; conditions: 1 μL of 1 mg/mL abtide spotted on nitrocellulose; 0.1 mg/mL mimetope; FIG. 4
Protocol: In some cases, these abtides were used in a dot blot experiment. In those cases, 1 μL of a 1 mg/mL solution of the 38-residue abtides was spotted onto nitrocellulose (0.2 μm or 0.45 μm, Schleicher & Schuell, Keene, NH) strips or circles. After drying (about 1/2 hour), the nitrocellulose was blocked for 1 hour in a solution of 1% BSA in PBS. The nitrocellulose was then allowed to incubate in approximately 5 mL of a solution of 0.1 mg/mL of a biotinylated 7E11-9.5 mimetope peptide (biotin-LYANPGMYSRLHSPA). This mimetope peptide was one of those described in Section 6.1.1 above that were synthesized based upon the nine peptides that were identified in the screening of Section 6.1.1 above. After an hour, the nitrocellulose was washed approximately 5 times with a solution of 1% BSA in PBS. A 1:2000 dilution of Extravidin-Alkaline Phosphatase (4,250 units/mL) (Sigma, St. Louis, Mo.) in PBS was then added and allowed to incubate for 1 hour, after which the nitrocellulose was again washed extensively. Finally, a solution of 5-bromo-4-chloro-3-indolyl phosphate (0.15 mg/mL) and nitro blue tetrazolium (0.3 mg/mL) (Sigma, St Louis, Mo.) (BCIP/NBT) was added as an enzyme substrate. Color was allowed to develop […].
In FIG. 4, the 7E11-C5 abtides known as clone 14, clone 17, clone 15, clone 16, and clone 13 were tested for their ability to bind the biotinylated 7E11-9.5 mimetope peptide. Also tested, as a positive control, was the monoclonal antibody 7E11-C5. 7E11-C5 was spotted onto the region marked 351 in FIG. 4.

in vivo = test: in vivo; design: species or system SCID mice; conditions: male, C.B-17/Icr Tac-SCID, mouse, iv, 2 ug, total radioactivity
Protocol: (§1) Male SCID mice (C.B-17/Icr Tac—SCID mice) were purchased from Fox Chase (Philadelphia, Pa.) or. Taconic Farms (Germantown, N.Y.), were housed in sterilized cages with filter bonnets, and were given autoclaved laboratory rodent chow (Purina, St. Louis, Mo.), and filtered tap water ad libitum.
(§2) 1×10^7 cells of the human prostate tumor line LNCaP (Horoszewicz et al., 1987, Anticancer Res. 7:927-936) were injected subcutaneously (s.c.) into the left rear flank of the mice. The cells were growing in exponential phase before harvesting and had been resuspended in 0.2 mL of sterile saline. Tumors were grown in the mice for 2-3 months before abtides were injected into the mice.
(§3) For biodistribution studies, abtides were modified at their amino termini with the chelator diethylene-triamine-pentaacetic acid anhydride (DTPA-A) (Sigma, St. Louis, Mo.). Approximately 2 mg of each abtide was initially dissolved in an appropriate volume of 0.1% acetic acid and then 1 mL of 0.1 M sodium bicarbonate, pH 8.0, was added. Two mg of DTPA-A was suspended in 100 AL of dimethylsulfoxide (DMSO), and 10 μL of the abtide solution added to this DTPA-A suspension. […]
(§4) In one experiment, abtide clone 14-DPTA-^111In (see Table 2) was injected intravenously (i.v.) into two groups of mice bearing measurable LNCaP xenografts. […] Thus, the total injected dose of radioactivity was about 120-140×10^6 cpm.
(§5) The first group of mice was sacrificed 2 hours after injection of the abtide and tissues were dissected for analysis. […] Dissected tissues were weighed and the amount of ^111In in them was determined by gamma counting. The cpm per gram of each tissue was calculated by dividing the cpm of ^111In found in the tissue by the weight in grams of the tissue. […]
(§6) In another experiment, abtide clone 17-DPTA-^111In (see Table 2) was injected intravenously into four SCID mice bearing measurable LNCaP xenografts. […] Thus, the total injected dose of radioactivity was about 100-110×10^6 cpm. […]

[3] = system: human prostate carcinoma LNCaP xenograft tumors; test: in vivo; design: species or system SCID mice; conditions: mouse, iv
Protocol: as §1, §2, §3, §4, §5, §6

T1 sequence (Q04609 whole entry): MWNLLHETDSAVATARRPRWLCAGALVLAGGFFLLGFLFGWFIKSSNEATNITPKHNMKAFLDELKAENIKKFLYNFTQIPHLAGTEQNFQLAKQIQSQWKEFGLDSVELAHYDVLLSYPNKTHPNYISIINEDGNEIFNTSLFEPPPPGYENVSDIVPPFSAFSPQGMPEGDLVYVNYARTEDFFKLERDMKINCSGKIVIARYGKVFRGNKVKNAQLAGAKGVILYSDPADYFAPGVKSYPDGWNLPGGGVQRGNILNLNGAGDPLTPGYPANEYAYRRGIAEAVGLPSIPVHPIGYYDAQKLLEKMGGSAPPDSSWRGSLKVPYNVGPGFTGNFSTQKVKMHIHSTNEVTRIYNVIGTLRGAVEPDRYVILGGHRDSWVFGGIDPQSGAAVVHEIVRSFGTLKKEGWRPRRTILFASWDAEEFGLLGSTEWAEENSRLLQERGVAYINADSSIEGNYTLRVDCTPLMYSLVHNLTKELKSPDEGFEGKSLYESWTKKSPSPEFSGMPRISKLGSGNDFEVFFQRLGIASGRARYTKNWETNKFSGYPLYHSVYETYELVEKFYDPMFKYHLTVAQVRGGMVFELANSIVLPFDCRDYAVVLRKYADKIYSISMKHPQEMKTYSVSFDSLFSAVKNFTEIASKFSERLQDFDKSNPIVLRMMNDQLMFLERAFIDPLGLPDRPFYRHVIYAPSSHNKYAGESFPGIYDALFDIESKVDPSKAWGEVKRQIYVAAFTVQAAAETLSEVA

Row | Compound | recognition (capture) of native 7E11-C5 antigen [1] | binding of biotinylated 7E11-9.5 mimetope peptide in dot blot [2] | tissue to tissue ratio at 2 h (in vivo) | localization to LNCaP xenograft tumors [3]
1 | GIINANDPLPFWFMSPYTPGPAPIDINASRALVSNESG [clone 14] | capable of recognizing the native 7E11-C5 antigen in LNCaP lysates | bound the mimetope |  | 
2 | CC[C@H](C)[C@H](NC(=O)CNC(=O)CN(CCN(CCN(CC(=O)O)CC(=O)O)CC(=O)O)CC(=O)O)C(=O)N[C@H](C(=O)N[C@@H](CC(N)=O)C(=O)N[C@@H](C)C(=O)N[C@@H](CC(N)=O)C(=O)N[C@@H](CC(=O)O)C(=O)N1CCC[C@H]1C(=O)N[C@@H](CC(C)C)C(=O)N1CCC[C@H]1C(=O)N[C@@H](Cc1ccccc1)C(=O)N[C@@H](Cc1c[nH]c2ccccc12)C(=O)N[C@@H](Cc1ccccc1)C(=O)N[C@@H](CCSC)C(=O)N[C@@H](CO)C(=O)N1CCC[C@H]1C(=O)N[C@@H](Cc1ccc(O)cc1)C(=O)N[C@H](C(=O)N1CCC[C@H]1C(=O)NCC(=O)N1CCC[C@H]1C(=O)N[C@@H](C)C(=O)N1CCC[C@H]1C(=O)N[C@H](C(=O)N[C@@H](CC(=O)O)C(=O)N[C@H](C(=O)N[C@@H](CC(N)=O)C(=O)N[C@@H](C)C(=O)N[C@@H](CO)C(=O)N[C@@H](CCCNC(=N)N)C(=O)N[C@@H](C)C(=O)N[C@@H](CC(C)C)C(=O)N[C@H](C(=O)N[C@@H](CO)C(=O)N[C@@H](CC(N)=O)C(=O)N[C@@H](CCC(=O)O)C(=O)N[C@@H](CO)C(=O)NCC(N)=O)C(C)C)[C@@H](C)CC)[C@@H](C)CC)[C@@H](C)O)[C@@H](C)CC [abtide clone 14-DPTA-^111In, metal not drawn] ({DTPA}-GIINANDPLPFWFMSPYTPGPAPIDINASRALVSNESG-NH2; N-terminus and C-terminus assumed) |  |  | 1.85 | specific localization to the tumor

Reference: patent US20040229289A1, “Antigen binding peptides (abtides) from peptide libraries” (Cytogen Corporation, priority 1994, published 2004)
